{"source": "patent US12383572B2", "about": "“Administration of an anti-activin-a compound to a subject” (AMGEN INC., priority 2013, dated 2025)", "key": {"[1]": {"test_system": "TOV-21G, MRC-5, CCD-Lu and THP-1 cell cultures", "assay": "VEGF and Ang-1 ELISA of cell culture medium after recombinant activin-A", "assay_type": "cell-based, human", "settings": "TOV21G, MRC-5, CCD-Lu and TPH-1 cells treated with activin-A", "protocol": "The serum VEGF levels in inh-KO mice were measured by using immunoassay kit (R & D Systems), and the levels of human VEGF and Ang-1 in cell line culture medium were quantified using ELISA kits purchased from Invitrogen (VEGF) and R & D Systems (Ang-1), by following the manufacturers' recommended protocols."}, "[2]": {"test_system": "TOV-21G, BAEC, MRC-5, CCD-Lu, U937 and THP-1 cultures", "assay": "Real-time RT-PCR of VEGF, Ang-1 and βA in cell cultures treated with recombinant activin-A", "assay_type": "cell-based", "settings": "BAEC", "source_text": "ID NO: 291), [NT] ID NO: 292), and TaqMan probe [NT] ID NO: 293)."}}}
{"molecule": "recombinant activin-A: Recombinant activin-A was produced using mammalian expression system (Amgen Inc) (protein, UniProt P08476 311-426, looked up) Inhibin beta A chain: GLECDGKVNICCKKQFFVSFKDIGWNDWIIAPSGYHANYCEGECPSHIAGTSGSSLSFHSTVINHYRMRGHSPFANLKSCCVPTKLRPMSMLYYDDGQNIIKKDIQNMIVEECGCS", "values": [{"measurement": "release of VEGF into the culture medium (ELISA)", "setting": "[1]", "result": "increased the release of VEGF"}, {"measurement": "Ang-1 mRNA (real-time PCR)", "setting": "[2]; MRC-5 and CCD-Lu cultures treated with recombinant activin-A", "result": "also of Ang-1 mRNA in BAEC, MRC-5 and CCD-Lu cultures"}, {"measurement": "endogenous activin-A (βA) mRNA expression", "setting": "[2]; TOV21G, MRC-5, CCD-Lu, U937 and THP-1 cultures, recombinant activin-A added", "result": "markedly upregulated βA expression in all these cells"}, {"measurement": "VEGF transcripts (real-time PCR)", "setting": "[2]; TOV-21G, MRC-5 or CCD-Lu, U937 cultures treated with recombinant activin-A", "result": "marked increases in the levels of VEGF transcripts in all these cultures"}]}
